Paper PMC6426604, “First Betalain-Producing Bacteria Break the Exclusive Presence of the Pigments in the Plant Kingdom” (mBio, 2019)

Test system: N[C@@H](Cc1ccc(O)c(O)c1)C(=O)O
Test: purified protein
Format: biochemical, Gluconacetobacter diazotrophicus
Details: 50 mM sodium phosphate pH 6.5, 10 mM sodium ascorbate, 25 °C, air

GdDODA (4,5-DODA from Gluconacetobacter diazotrophicus) (Gluconacetobacter diazotrophicus PA1 5), sequence (chain, as listed by the source): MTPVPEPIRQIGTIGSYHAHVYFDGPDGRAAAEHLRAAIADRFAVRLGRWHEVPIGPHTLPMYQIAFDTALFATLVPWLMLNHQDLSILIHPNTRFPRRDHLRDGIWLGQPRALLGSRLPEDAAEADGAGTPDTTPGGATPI

In the case of “GdDODA (4,5-DODA from Gluconacetobacter diazotrophicus) (Gluconacetobacter diazotrophicus PA1 5)”, the Km is reported as 1360 ± 310 µM and the kcat is reported as 0.00833 ± 0.000317 s⁻¹.
